Test results from paper PMC5693891.
One block for each substance: values may come before it.

Columns and labels:
[1] = biological target: soluble human neonatal Fc receptor (FcRn) (human) (UniProt P55899); assay: BLI; Octet-Red96, biotin-labeled human FcRn on streptavidin tips, Fc proteins 10 to 0.625 µM as analytes, PBS with 0.02% Tween 20, pH 6.0, 37°C, 1:1 model
[2] = biological target: 1-D1-15 (Fc mutant, monomer/dimer mixture) T366H; Leu368 unchanged; Leu351 not mutated to Ser; position 395 is Lys or Arg by library design; residues at 409, 428 and 434 not stated in the text (Figure 2B only) (UniProt P01857); assay: Bio-layer interferometry (Octet-Red96, Pall ForteBio); details: pH 6.0; 37°C; PBS (composition not stated); PBS adjusted to pH 6.0 or pH 7.4 (same buffer at both pH)
[3] = biological target: wild-type IgG1 Fc (dimeric) (UniProt P01857); assay: as above; details: pH 6.0; 37°C; PBS (composition not stated); PBS adjusted to pH 6.0 or pH 7.4 (same buffer at both pH)
[4] = biological target: 1-B10-9 (new monomeric IgG1 Fc) T366R;L368H;P395K;K409T;M428L (UniProt P01857); assay: as above; details: pH 6.0; 37°C; PBS (composition not stated); PBS adjusted to pH 6.0 or pH 7.4 (same buffer at both pH)
[5] = biological target: mFc (previously reported monomeric IgG1 Fc) L351S;T366R;L368H;P395K (UniProt P01857); assay: as above; details: pH 6.0; 37°C; PBS (composition not stated); PBS adjusted to pH 6.0 or pH 7.4 (same buffer at both pH)
FcRn (Homo sapiens) = FcRn (Homo sapiens) (UniProt P55899); details: cited from earlier work

Kd [1]: 260 nM
koff [1]: 0.0003 s⁻¹
kon [1]: 1100 M⁻¹ s⁻¹
Substance: wild-type dimeric IgG1 Fc (domain or fragment)

kon [2]: 3800 M⁻¹ s⁻¹
koff [3]: 0.0003 s⁻¹
kon [3]: 1100 M⁻¹ s⁻¹
koff [4]: 0.00056 s⁻¹
kon [4]: 1100 M⁻¹ s⁻¹
koff [5]: 0.00064 s⁻¹
kon [5]: 1200 M⁻¹ s⁻¹
Substance: neonatal Fc receptor (FcRn), soluble, biotinylated

Substance: IgG1 Fc Fc (from UniProt P01857)
Kd (FcRn (Homo sapiens)): 110 nM
